Data on two sequences can be found in article PMC5924515.

Data set [1] has as its target T1, VapB15 (Synechocystis sp. PCC 6803) (UniProt P74009).
T1 sequence: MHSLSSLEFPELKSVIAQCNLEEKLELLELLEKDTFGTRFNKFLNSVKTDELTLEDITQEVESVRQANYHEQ
The experiment in a line: EMSA. To be noted: 100 mM Tris-HCl pH 8.0, 100 mM NaCl, 1 mM DTT, 10% glycerol, 0.1 mg/mL sonicated salmon sperm DNA, 25 C, 30 min; 5% native PAGE in 0.5x TBE. For orientation: In EMSA bound probe runs differently from free probe, usually more slowly.

The target in data set [2] is T2, VapB15;VapC15-His6 (Synechocystis sp. PCC 6803;Synechocystis sp. PCC 6803) (UniProt P74009+P74010).
T2 sequence 1: T1 sequence
T2 sequence 2: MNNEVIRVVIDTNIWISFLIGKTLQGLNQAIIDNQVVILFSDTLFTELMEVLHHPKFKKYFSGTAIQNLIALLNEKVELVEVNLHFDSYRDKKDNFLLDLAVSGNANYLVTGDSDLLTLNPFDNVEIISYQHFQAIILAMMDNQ
The experiment in a line: EMSA.

As to “CAAAGCTCTGGCAACCCTGCAGAACTTTAAACCTATCCCCCTAGGCTTGGGGCCAGGGGACTTTTCAAGCAACTCCTTGGGGCACTATTTGGAAATGTGATAATGGGAGTTATAATTCGCCTCTCGGAGAAAAGTTGAAATGCACTCATTGTCATCACTGGAATTTC (double strand) [P1 (PvapBC15 promoter, PS1 and PS2)]”, the binding entry in data set [1] was “binds”; in data set [2], “binds more weakly”. In the case of “GAAATTCCAGTGATGACAATGAGTGCATTTCAACTTTTCTCCGAGAGGCGAATTATAACTCCCATTATCACATTTCCAAATAGTGCCCCAAGGAGTTGCTTGAAAAGTCCCC (double strand) [P2 (3' half of PS1 and whole PS2)]”, the binding entry in data set [1] is given as “no binding”.
